This note sets out measurements from US11034736B2, “Anti-viral cnidarins” (priority 2014, dated 2021).

One data set concerns CEM-SS cells. Nature of the data set: Direct toxicity to uninfected CEM-SS control cells (XTT). Type of data set: cell-based, human. Here is the method: A 2,3-bis-[2-methoxy-4-nitro-5-sulfophenyl]-2H-tetrazolium-5-carboxanilide inner salt (XTT)-tetrazolium-based assay was used to determine the anti-HIV activity of CNID-1, -2 and -3 against a T-tropic laboratory strain (HIV-1RF) in T-lymphoblastic CEM-SS cells as described previously (Gulakowski et al., J. Virol. Methods, 33: 87-100 (1991)). CEM-SS cells were maintained in RPMI 1640 media without phenol red and supplemented with 10% fetal bovine serum (BioWhittaker), 2 mM L-glutamine (BioWhittaker), and 50 μg/ml gentamicin (BioWhittaker) (complete medium). Exponentially growing cells were washed and resuspended in complete medium, and a 50 μl aliquot containing 5×10^3 cells was added to individual wells of a 96-well round-bottom microtiter plate containing serial dilutions of the respective cnidarin protein in a volume of 100 μl of medium. Stock supernatants of HIV-1RF were diluted in complete medium to yield sufficient cytopathicity (80-90% cell kill in 6 days), and a 50 μl aliquot was added to appropriate wells. Plates were incubated for 6 days at 37° C. and then stained for cellular viability using XTT.
(§1) The HIV reverse transcriptase inhibitor 3′-Azido-3′-deoxythymidine (AZT) was used as a positive control. All assays were carried out in triplicate for all viruses and cells.
In general terms: Formazan colour is commonly taken as a measure of viable cells.

The test system of data set [1] is HeLa CD4 LTR β-galactosidase cells. Nature of the data set: Cytotoxicity in the attachment and fusion assays. Type of data set: cell-based. On the procedure:
as §1
Attachment and fusion assays were performed in HeLa-CD4-LTR-β-galactosidase cell lines as described previously (Gartner & Popovic, (1990), supra) with the following modifications. Following the interaction of HIV-1IIIIIB with HeLa CD4 LTR β-gal cells, viral attachment to HeLa CD4 LTR β-gal cells was detected as cell-associated p24 antigen following a 1 hour adsorption of virus and vigorous washing for removal of unbound virus. Fusion of HIV-1IIIIB with HeLa CD4 LTR β-gal cells was detected by chemiluminescence using a single-step lysis and detection method (Tropix Gal-screen, Bedford, Mass.) and results reported as EC50 values. Chicago Sky Blue, a polysulfonic acid dye inhibitor of HIV attachment and fusion, was used as a positive control for all assays (Clanton et al., J. Acquired Immune Defic. Syndr., 5: 771-781 (1992)).

In the next data set the target is HIV-1IIIB gp120 (Human immunodeficiency virus type 1 group M subtype B, UniProt P04578). Here is the method:
Additional ELISA studies were performed to assess the effect of monosaccharides on CNID-1 binding to gp120 and gp41. The plates were prepared with native HIV-1IIIB gp120 (Advanced Biotechnologies, Columbia, Md.) or recombinant HIV-1HxB2 gp41 (Vybion Inc., Ithaca, N.Y.), and 100 ng/well rCNID-1-Trx was added in the presence or absence of 1 mM concentrations of the following sugars: glucose, mannose, galactose, fucose, xylose, N-acetylglucosamine (GlcNAc), N-acetylgalactosamine (GalNAc), or 100 ng/well α-acid glycoprotein (to act as a carrier for sialic acid). The plates were then washed and visualized using anti-CNID-1 polyclonal antibodies as above.
Plates to test the effect of sCD4 on CNID-1 binding to gp120 were prepared with recombinant HIV-1IIIB gp120 (Immuno Diagnostics, Woburn, Mass.) at 4° C. overnight (100 ng/well) and blocked as previously described. Serial dilutions of rCNID-1-Trx were added in the presence (test plate) or absence (control plate) of 50 ng/well sCD4 (sCD4-183, 2-domain, NIH AIDS Research & Reference Reagent Program, Germantown, Md.) and incubated for 1 hr. Plates were washed and visualized as above. Plates to test for the effect of CV-N, SVN or GRFT on CNID-1 binding to gp120 were prepared with recombinant HIV-NIIIB gp120 (Immuno Diagnostics, Woburn, Mass.) at 4° C. overnight (100 ng/well) and blocked as previously described. CV-N (100 ng/well), SVN (100 ng/well) or GRFT (130 ng/well) were added (PBST was added to control wells) and incubated for 30 minutes, followed by serial dilutions of rCNID-1-Trx and further incubated for 75 minutes. The plates were then washed and visualized using anti-CNID-1 polyclonal antibodies as previously outlined.
Plates were prepared with recombinant HIV-1IIIIB gp120 (Immuno Diagnostics, Woburn, Mass.) at 4° C. overnight (100 ng/well) and blocked as previously described. rCNID-1-Trx were added: 250 ng/well for sCD4 test plate or 500 ng/well for the GRFT test plate, and PBST (50 μl/well) to the control plate; incubation done for 2 hrs. The plates were washed as before and serial dilutions of sCD4 (sCD4-183, 2-domain, NIH AIDS Research & Reference Reagent Program, Germantown, Md.) or GRFT were added; incubated for 1 hr 10 minutes. Plates were washed as before. Primary antibodies were added at 100 μl/well: mouse anti-CD4 (ProSci Inc., Poway, Calif.) at 1:1000 dilution or rabbit anti-GRFT at 1:500 dilution; incubation done for 1 hr. The plates were washed as before and peroxidase conjugated secondary antibodies (Thermo Fisher Scientific Inc., Rockford, Ill.) were added at 100 μl/well: goat anti-mouse (sCD4 plate) or goat anti-rabbit (GRFT plate) at a 1:1000 dilution; incubation for 1 hr. The plates were then washed and visualized as previously outlined.

Where two headings read alike, the source gives them in different places. Where only a bound is given, the exact number is not on record here.

B1: CNID-1: HIV-inhibitory protein from soft coral Synthecium sp.; 172 amino acids, 18,122 Da, SEQ ID NO: 1 (protein)
chain: GRATLGQLKTSTIPPVTFDVPFDGANIPQDVRFTIATVNGGKGALYNAELGESAGHTIVLESDGDHPIPGTFDPKSGRGLDYLPRGLVLFSSHNYVGNMKMYTEPDSDITADFPPGTPFGVSSAITGEGSAFQLNTGIDHTGEFEIIPPNTKRNLAGVFDNEIRSVSPTGGK
In general, CC50 refers to the concentration at which the toxic effect on the cells reaches its halfway point. Regarding B1, the half-maximal cytotoxic concentration (CC50) is 0.112 µM with CEM-SS cells; more than 0.0552 µM in data set [1] (attachment assay, read-out: Inhibition of Attachment CC50); more than 0.0552 µM in data set [1] (fusion assay, read-out: Inhibition of Fusion CC50). Also, the “CNID-1 binding to gp120 after CV-N pre-treatment” value in the data set with HIV-1IIIB gp120 (CV-N 100 ng/well) is “did not affect CNID-1 binding”. Further, in the data set with HIV-1IIIB gp120 (ELISA), the “CNID-1 binding to gp120 after GRFT pretreatment” value was “reduced CNID-1 binding to gp120”. Besides, in the data set with HIV-1IIIB gp120 (ELISA), the “CNID-1 binding to gp120 after pretreatment with sCD4” value is on record as “did not block CNID-1 binding to gp120”. Also, the “sCD4 binding to gp120 after pre-treatment with CNID-1” value in the data set with HIV-1IIIB gp120 (ELISA) is listed as “did not block subsequent binding of sCD4 to gp120”. Also, the “CNID-1 binding to gp120 after SVN pre-treatment” value in the data set with HIV-1IIIB gp120 (SVN 100 ng/well) was “did not affect CNID-1 binding”. The “GRFT binding to gp120 after pretreatment with CNID-1” value with HIV-1IIIB gp120 (rCNID-1 500 ng/well) is listed as “did not inhibit GRFT binding to gp120”. For the same molecule, the “CNID-1 binding to gp120 in presence of α-acid glycoprotein” value with HIV-1IIIB gp120 (α-acid glycoprotein as carrier of sialic acid) is listed as “not inhibited”.
